Assay [1] deals with protein A (UniProt P38507). The assay is described as follows: phage ELISA on coated protein A; heat/cool assay, % of untreated sample (n = 2). For orientation: ELISA stands for enzyme-linked immunosorbent assay.
The target in assay [2] is protein A (UniProt P38507). The assay is described as follows: phage ELISA on coated protein A; heat/cool assay, % of untreated sample.

As to DP47 VH T28D + SYA_31-33_DDD + S35D, the Retained binding to protein A (%) in assay [1] was 78.6%.
The same measure, in the same setting: the value for DP47 VH S35D + SYA_31-33_DDD was 76.7%.
Take DP47 VH S35D + YA_32/33_DD: the Retained binding to protein A (%) in assay [2] was 70.4%.
For DP47 VH T28D + YA_32/33_DD, the Retained binding to protein A (%) in assay [1] is 76.1%.
Same read-out and setting: the result for DP47 VH T28D + SYA_31-33_DDD reads 74.9%.

For the origin of these results see patent US20120207673A1.
